The target in the assay is wild-type human APOBEC3G with a fused HA tag at the C-terminus (human) (UniProt Q9HC16). The experiment in a line: co-immunoprecipitation with anti-HA from 293T cell lysate, Western blot with anti-CA; ratio normalized to hGag.

One substance from patent US20060002951A1 can be followed below.

wild-type human APOBEC3G with a fused HA tag at the C-terminus (human), sequence (Q9HC16 whole entry, the tested form may be a part): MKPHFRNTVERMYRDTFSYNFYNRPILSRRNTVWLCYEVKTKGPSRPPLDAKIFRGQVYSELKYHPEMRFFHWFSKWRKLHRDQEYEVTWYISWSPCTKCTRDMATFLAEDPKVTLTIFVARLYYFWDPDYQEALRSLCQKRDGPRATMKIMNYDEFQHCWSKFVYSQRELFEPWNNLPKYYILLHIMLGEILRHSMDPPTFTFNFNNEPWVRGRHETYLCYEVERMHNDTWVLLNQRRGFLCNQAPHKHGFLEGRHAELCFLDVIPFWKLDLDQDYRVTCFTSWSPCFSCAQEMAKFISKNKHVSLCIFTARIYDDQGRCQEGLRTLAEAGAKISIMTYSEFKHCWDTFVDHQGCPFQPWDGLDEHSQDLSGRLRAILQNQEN

In the case of “hGag deletion mutant Δ378-500 (from UniProt P04585 1-377)”, the reduction in the interaction of Gag with APOBEC3G against hGag was above 95%.
